Article PMC12074421, “Development and Characterization of pFluor50, a Fluorogenic-Based Kinetic Assay System for High-Throughput Inhibition Screening and Characterization of Time-Dependent Inhibition and Inhibition Type for Six Human CYPs” (Molecules, 2025)
Where “and” joins values, the source holds several entries; their conditions need not be identical. Equal entries are not always repeated.

Legend:
CYP2C19 = target: T1, CYP2C19 (Homo sapiens, UniProt P33261); assay: pFluor50 Michaelis–Menten kinetics, CYP2C19 with 3OMF; type: in vitro ADME
T1 construct: purchased Sigma Aldrich (CYPexpress, Oxford Biomedical Research, Inc.) MTOXCE2C19
Protocol: (§1) In general, the protocol for determination of the Michaelis–Menten kinetic parameters (KM and Vmax) involved addition of the appropriate master mix to phosphate buffer followed by addition of the appropriate amount of enzyme to the mix. The master mix was determined for each specific CPY450 based on empirical methods involving each reagent to obtain a linear range of enzyme activity. A total of 30 µL of this enzyme mix was then added to each well of the 384-well plate. Next, initial background readings were taken for 5 min, after which the appropriate amount of substrate was dispensed into each well using the onboard reagent dispenser of the plate reader. All plates contained one blank well without enzyme (only master mix) for each substrate concentration. […] Table 1 provides the formulation of the master mix for each CYP, the kinetic read time with substrate, the read time interval, the concentration range of the substrate used for the Michaelis–Menten kinetics, the Ex and Em wavelengths, and the concentration of substrate for inhibition/activation screening. Table S1 details the specific parameters used for the plate reader for each CYP–substrate pair.
(§2) For determining the Michaelis–Menten kinetic parameters (KM and Vmax) for each CYP–substrate pair, kinetic studies were performed in which a range of different concentrations of the substrate were used. Table 1 details the formulations for the master mix, CYPexpress^TM concentrations, and concentration ranges of each specific substrate. For each CYP–substrate pair, plate reader parameters were set up as described in Table S1. […] Briefly, the working solution was prepared for each substrate and then primed into one of the dispensers on the plate reader. […] The amount of CYPexpress reagent in units/(mg/mL) was determined for each enzyme as new lots may have slightly different activities, and the activity of the reagent may change over time. The appropriate mass of each CYPexpress^TM reagent needed to obtain the required units was measured using an analytical balance and was transferred to the master mix solution. […]

CYP2D6 = CYP2D6 (Homo sapiens, UniProt P10635); assay: pFluor50 Michaelis–Menten kinetics, CYP2D6 with Eres; type: in vitro ADME; set-up: purchased Sigma Aldrich (CYPexpress, Oxford Biomedical Research, Inc.) MTOXCE2D6
Protocol: as §1, with “reader.” for “reader. All plates contained one blank well without enzyme (only master mix) for each substrate concentration.”
For determining the Michaelis–Menten kinetic parameters (KM and Vmax) for each CYP–substrate pair, kinetic studies were performed in which a range of different concentrations of the substrate were used. […] For each CYP–substrate pair, plate reader parameters were set up as described in Table S1. […]

CYP2C9 = CYP2C9 (Homo sapiens, UniProt P11712); assay: pFluor50 Michaelis–Menten kinetics, CYP2C9 with Eres; type: in vitro ADME; set-up: purchased Sigma Aldrich (CYPexpress, Oxford Biomedical Research, Inc.) MTOXCE2C9
Protocol: as §1, §2

[1] = substrate: COc1ccc2c(-c3ccccc3C(=O)O)c3ccc(=O)cc-3oc2c1; assay: pFluor50 Michaelis–Menten kinetics, CYP2C19 with 3OMF; type: in vitro ADME, human; conditions: pH 7.4
Protocol: as §1
For determining the Michaelis–Menten kinetic parameters (KM and Vmax) for each CYP–substrate pair, kinetic studies were performed in which a range of different concentrations of the substrate were used. […] For each CYP–substrate pair, plate reader parameters were set up as described in Table S1. […] Briefly, the working solution was prepared for each substrate and then primed into one of the dispensers on the plate reader. […] The amount of CYPexpress reagent in units/(mg/mL) was determined for each enzyme as new lots may have slightly different activities, and the activity of the reagent may change over time. The appropriate mass of each CYPexpress^TM reagent needed to obtain the required units was measured using an analytical balance and was transferred to the master mix solution. […] The plate was then transferred to the plate reader and readings were taken at the time intervals, for the appropriate length of time, and at the appropriate wavelengths as specified in Table 1.
Calibration curves were constructed using the determined plate reader settings (Figure S3) and concentrations of the products formed to allow for the calculation of product formation rates based on the observed fluorescence. For these calculations, we presumed that the total increase in observed fluorescence over time was due only to product formation. Calibration curves were generated with 6 different concentrations of the products (fluorescein and resorufin), which spanned the relative fluorescence units (RFU) observed during the kinetic experiments. […]

[2] = substrate: CCOc1ccc2nc3ccc(=O)cc-3oc2c1; assay: pFluor50 Michaelis–Menten kinetics, CYP1A2 with Eres; type: in vitro ADME, human; conditions: pH 7.4
Protocol: as §1
(§3) For determining the Michaelis–Menten kinetic parameters (KM and Vmax) for each CYP–substrate pair, kinetic studies were performed in which a range of different concentrations of the substrate were used. Table 1 details the formulations for the master mix, CYPexpress^TM concentrations, and concentration ranges of each specific substrate. For each CYP–substrate pair, plate reader parameters were set up as described in Table S1. The protocol used for Michaelis–Menten kinetics was similar for all the CYPs. Briefly, the working solution was prepared for each substrate and then primed into one of the dispensers on the plate reader. The other dispenser was primed with the buffer solution. 1.5 mL of phosphate buffer solution (pH 7.4) was used to prepare the master mix with the appropriate concentration of each reagent as specified in Table 1 (NADPH, NADP+, G6P, G6PDH, and/or MgCl2). The amount of CYPexpress reagent in units/(mg/mL) was determined for each enzyme as new lots may have slightly different activities, and the activity of the reagent may change over time. The appropriate mass of each CYPexpress^TM reagent needed to obtain the required units was measured using an analytical balance and was transferred to the master mix solution. This solution was mixed, and 30 µL of the solution was added to each well using a multichannel pipette. In each case, a blank control well was also included, as described in Figure S1. The plate was then transferred to the plate reader and readings were taken at the time intervals, for the appropriate length of time, and at the appropriate wavelengths as specified in Table 1.
(§4) Calibration curves were constructed using the determined plate reader settings (Figure S3) and concentrations of the products formed to allow for the calculation of product formation rates based on the observed fluorescence. For these calculations, we presumed that the total increase in observed fluorescence over time was due only to product formation. Calibration curves were generated with 6 different concentrations of the products (fluorescein and resorufin), which spanned the relative fluorescence units (RFU) observed during the kinetic experiments. This allowed for the calculation of product concentrations from the observed RFU, enabling the calculation of the product formation rates. Unfortunately, fluorescein benzyl ester (the product formed from the metabolism of dibenzyl fluorescein) is not commercially available. Therefore, the exact rate of formation could not be determined, and the Vmax for CYP3A4 cleavage of dibenzyl fluorescein has been reported as the rate of change in relative fluorescence units (RFUs) per minute.

[3] = substrate: CCOc1ccc2nc3ccc(=O)cc-3oc2c1; assay: pFluor50 Michaelis–Menten kinetics, CYP2C9 with Eres; type: in vitro ADME, human; conditions: pH 7.4
Protocol: as §1, §2

[4] = substrate: CCOc1ccc2nc3ccc(=O)cc-3oc2c1; assay: pFluor50 Michaelis–Menten kinetics, CYP2D6 with Eres; type: in vitro ADME, human; conditions: pH 7.4
Protocol: as §1
as §3, with “In each case, a blank control well was also included, as described in Figure S1.” left out
as §4, with “This allowed for the calculation of product concentrations from the observed RFU, enabling the calculation of the product formation rates. Unfortunately, fluorescein benzyl ester (the product formed from the metabolism of dibenzyl fluorescein) is not commercially available.” left out

[5] = other: CYP2C19 2 mg/mL, three biological replicates
[6] = other: CYP1A2 1 mg/mL, three biological replicates
[7] = other: CYP1A2, biological repeat 1
[8] = other: CYP1A2, biological repeat 2
[9] = other: CYP1A2, biological repeat 3
[10] = other: CYP2D6 1 mg/mL, three biological replicates

What does the source list for `COc1ccc2c(-c3ccccc3C(=O)O)c3ccc(=O)cc-3oc2c1` [3OMF, 2-(6-methoxy-3-oxo-3H-xanthen-9-yl)benzoic acid]?
Vmax – repeat 1 (CYP2C19; CYP2C19, biological repeat 1): 19.35 nmol/min; Vmax – repeat 2 (CYP2C19; CYP2C19, biological repeat 2): 15.86 nmol/min; Vmax – repeat 3 (CYP2C19; CYP2C19, biological repeat 3): 19.37 nmol/min

For `CCOc1ccc2nc3ccc(=O)cc-3oc2c1` [Eres, 7-ethoxy-3H-phenoxazin-3-one], which “Vmax – repeat 1” value (CYP2D6; CYP2D6, biological repeat 1) is on record?
Its value is 1.22 nmol/min.

What about the “Vmax – repeat 2” value (CYP2D6; CYP2D6, biological repeat 2) of the same molecule?
Its value is 0.72 nmol/min.

And the “Vmax – repeat 1” value (CYP2C9; CYP2C9, biological repeat 1)?
Its value is 0.40 nmol/min.

What about the “Vmax – repeat 2” value (CYP2C9; CYP2C9, biological repeat 2) of the same molecule?
The value was 0.39 nmol/min.

And the “Vmax – repeat 3” value (CYP2C9; CYP2C9, biological repeat 3)?
The value was 0.49 nmol/min.

B1: CYP2C19 (Homo sapiens) (protein)
chain: MDPFVVLVLCLSCLLLLSIWRQSSGRGKLPPGPTPLPVIGNILQIDIKDVSKSLTNLSKIYGPVFTLYFGLERMVVLHGYEVVKEALIDLGEEFSGRGHFPLAERANRGFGIVFSNGKRWKEIRRFSLMTLRNFGMGKRSIEDRVQEEARCLVEELRKTKASPCDPTFILGCAPCNVICSIIFQKRFDYKDQQFLNLMEKLNENIRIVSTPWIQICNNFPTIIDYFPGTHNKLLKNLAFMESDILEKVKEHQESMDINNPRDFIDCFLIKMEKEKQNQQSEFTIENLVITAADLLGAGTETTSTTLRYALLLLLKHPEVTAKVQEEIERVIGRNRSPCMQDRGHMPYTDAVVHEVQRYIDLIPTSLPHAVTCDVKFRNYLIPKGTTILTSLTSVLHDNKEFPNPEMFDPRHFLDEGGNFKKSNYFMPFSAGKRICVGEGLARMELFLFLTFILQNFNLKSLIDPKDLDTTPVVNGFASVPPFYQLCFIPV
notes: purchased Sigma Aldrich (CYPexpress, Oxford Biomedical Research, Inc.) MTOXCE2C19
What does the source list for B1?
Km [1, 5]: 2.3 ± 0.8 µM and 2.31 ± 0.8 µM; Vmax [1, 5]: 0.0182 µmol/min; Km ([1]; other: CYP2C19, biological repeat 1): 3.19 µM; Km ([1]; other: CYP2C19, biological repeat 2): 1.42 µM

B2: CYP1A2 (Homo sapiens) (protein)
chain: ALSQSVPFSATELLLASAIFCLVFWVLKGLRPRVPKGLKSPPEPWGWPLLGHVLTLGKNPHLALSRMSQRYGDVLQIRIGSTPVLVLSRLDTIRQALVRQGDDFKGRPDLYTSTLITDGQSLTFSTDSGPVWAARRRLAQNALNTFSIASDPASSSSCYLEEHVSKEAKALISRLQELMAGPGHFDPYNQVVVSVANVIGAMCFGQHFPESSDEMLSLVKNTHEFVETASSGNPLDFFPILRYLPNPALQRFKAFNQRFLWFLQKTVQEHYQDFDKNSVRDITGALFKHSKKGPRASGNLIPQEKIVNLVNDIFGAGFDTVTTAISWSLMYLVTKPEIQRKIQKELDTVIGRERRPRLSDRPQLPYLEAFILETFRHSSFLPFTIPHSTTRDTTLNGFYIPKKCCVFVNQWQVNHDPELWEDPSEFRPERFLTADGTAINKPLSEKMMLFGMGKRRCIGEVLAKWEIFLFLAILLQQLEFSVPPGVKVDLTPIYGLTMKHARCEHVQARLRFSIN
notes: purchased Sigma Aldrich (CYPexpress, Oxford Biomedical Research, Inc.) MTOXCE1A2
What does the source list for B2?
Km [2, 6]: 0.35 ± 0.1 µM; Vmax [2, 6]: 1.61 nmol/min; Km [2, 7]: 0.33 µM; Vmax [2, 7]: 1.64 nmol/min; Km [2, 8]: 0.225 µM; Vmax [2, 8]: 1.38 nmol/min; Km [2, 9]: 0.47 µM; Vmax [2, 9]: 1.82 nmol/min

B3: CYP2C9 (Homo sapiens) (protein)
chain: MDSLVVLVLCLSCLLLLSLWRQSSGRGKLPPGPTPLPVIGNILQIGIKDISKSLTNLSKVYGPVFTLYFGLKPIVVLHGYEAVKEALIDLGEEFSGRGIFPLAERANRGFGIVFSNGKKWKEIRRFSLMTLRNFGMGKRSIEDRVQEEARCLVEELRKTKASPCDPTFILGCAPCNVICSIIFHKRFDYKDQQFLNLMEKLNENIKILSSPWIQICNNFSPIIDYFPGTHNKLLKNVAFMKSYILEKVKEHQESMDMNNPQDFIDCFLMKMEKEKHNQPSEFTIESLENTAVDLFGAGTETTSTTLRYALLLLLKHPEVTAKVQEEIERVIGRNRSPCMQDRSHMPYTDAVVHEVQRYIDLLPTSLPHAVTCDIKFRNYLIPKGTTILISLTSVLHDNKEFPNPEMFDPHHFLDEGGNFKKSKYFMPFSAGKRICVGEALAGMELFLFLTSILQNFNLKSLVDPKNLDTTPVVNGFASVPPFYQLCFIPV
notes: purchased Sigma Aldrich (CYPexpress, Oxford Biomedical Research, Inc.) MTOXCE2C9
What does the source list for B3?
Km ([3]; other: CYP2C9, biological repeat 1): 0.46 µM; Km ([3]; other: CYP2C9, biological repeat 2): 0.52 µM; Km ([3]; other: CYP2C9, biological repeat 3): 0.39 µM

B4: CYP2D6 (Homo sapiens) (protein)
chain: MGLEALVPLAVIVAIFLLLVDLMHRRQRWAARYPPGPLPLPGLGNLLHVDFQNTPYCFDQLRRRFGDVFSLQLAWTPVVVLNGLAAVREALVTHGEDTADRPPVPITQILGFGPRSQGVFLARYGPAWREQRRFSVSTLRNLGLGKKSLEQWVTEEAACLCAAFANHSGRPFRPNGLLDKAVSNVIASLTCGRRFEYDDPRFLRLLDLAQEGLKEESGFLREVLNAVPVLLHIPALAGKVLRFQKAFLTQLDELLTEHRMTWDPAQPPRDLTEAFLAEMEKAKGNPESSFNDENLRIVVADLFSAGMVTTSTTLAWGLLLMILHPDVQRRVQQEIDDVIGQVRRPEMGDQAHMPYTTAVIHEVQRFGDIVPLGVTHMTSRDIEVQGFRIPKGTTLITNLSSVLKDEAVWEKPFRFHPEHFLDAQGHFVKPEAFLPFSAGRRACLGEPLARMELFLFFTSLLQHFSFSVPTGQPRPSHHGVFAFLVSPSPYELCAVPR
notes: purchased Sigma Aldrich (CYPexpress, Oxford Biomedical Research, Inc.) MTOXCE2D6
What does the source list for B4?
Km [4, 10]: 1.63 ± 0.7 µM; Vmax [4, 10]: 0.00093 µmol/min; Km ([4]; other: CYP2D6, biological repeat 1): 2.43 µM; Km ([4]; other: CYP2D6, biological repeat 2): 0.89 µM; Km ([4]; other: CYP2D6, biological repeat 3): 1.57 µM
